Among the data in paper PMC11931385, “Structural and functional analysis of cancer-associated missense variants in the retinoblastoma protein pocket domain” (The Journal of Biological Chemistry, 2025) are Kd values, retold here.

No end group written: not given here. TMR = tetramethyl rhodamine dye

Holding throughout (assay): fluorescence polarisation; 25 °C; unlabeled Rb^P titrated against 1.5 nM TMR-E2F1^TD or 7.5 nM TMR-E7^LxCxE; 25 mM Tris pH 8.0, 200 mM NaCl, 1 mM DTT, 0.1% Tween-20; 2 min incubation; quadratic fit; apparent Kd for the variants, Kd for WT
Settings in all cases: both partners purified
(In fluorescence polarisation assays a small probe gives low polarisation when free and higher when bound to something large.)

The target of assay [1] is T1, Rb^P R668C (human, UniProt P06400 380-788, R668C).
T1 construct: also called variant 51
T1 sequence (looked up): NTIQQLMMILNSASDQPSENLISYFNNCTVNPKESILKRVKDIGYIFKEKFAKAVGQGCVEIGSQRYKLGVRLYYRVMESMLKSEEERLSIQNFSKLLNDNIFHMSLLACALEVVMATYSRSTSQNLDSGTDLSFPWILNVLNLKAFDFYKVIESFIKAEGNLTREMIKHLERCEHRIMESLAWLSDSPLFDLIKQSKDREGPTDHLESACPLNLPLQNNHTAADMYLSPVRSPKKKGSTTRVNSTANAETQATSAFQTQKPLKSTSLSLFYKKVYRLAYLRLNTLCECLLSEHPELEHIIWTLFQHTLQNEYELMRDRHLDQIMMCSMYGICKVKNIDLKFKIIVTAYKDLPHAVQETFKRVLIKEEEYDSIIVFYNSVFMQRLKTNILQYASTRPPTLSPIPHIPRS

In assay [2] the target is T2, Rb^P S534R (human, UniProt P06400 380-788, S534R).
T2 construct: also called variant 23
T2 sequence (looked up): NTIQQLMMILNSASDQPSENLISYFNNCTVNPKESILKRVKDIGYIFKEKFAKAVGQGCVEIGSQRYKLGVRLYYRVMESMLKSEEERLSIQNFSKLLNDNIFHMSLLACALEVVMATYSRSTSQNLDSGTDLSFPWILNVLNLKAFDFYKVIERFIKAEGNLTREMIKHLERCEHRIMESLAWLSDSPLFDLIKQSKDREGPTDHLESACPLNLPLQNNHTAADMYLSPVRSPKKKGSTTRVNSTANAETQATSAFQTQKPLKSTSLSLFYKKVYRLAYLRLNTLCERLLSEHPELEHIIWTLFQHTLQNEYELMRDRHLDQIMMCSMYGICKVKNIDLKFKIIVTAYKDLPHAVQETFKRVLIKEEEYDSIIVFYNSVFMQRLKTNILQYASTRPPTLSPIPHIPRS

Assay [3] addresses T3, Rb^P S463L (human, UniProt P06400 380-788, S463L).
T3 construct: also called variant 10
T3 sequence (looked up): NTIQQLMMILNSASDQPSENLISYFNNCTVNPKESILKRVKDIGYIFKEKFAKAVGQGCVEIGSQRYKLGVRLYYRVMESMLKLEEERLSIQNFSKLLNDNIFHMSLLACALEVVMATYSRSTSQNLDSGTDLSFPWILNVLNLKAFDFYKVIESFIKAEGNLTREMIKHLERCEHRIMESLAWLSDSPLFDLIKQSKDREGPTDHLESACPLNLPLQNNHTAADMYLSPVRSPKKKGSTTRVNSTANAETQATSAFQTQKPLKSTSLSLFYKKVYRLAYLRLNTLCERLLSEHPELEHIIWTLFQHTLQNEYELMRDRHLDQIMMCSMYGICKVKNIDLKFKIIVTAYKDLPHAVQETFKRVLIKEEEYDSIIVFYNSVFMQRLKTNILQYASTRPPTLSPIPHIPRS

The target of assay [4] is T4, Rb^P R741S (human, UniProt P06400 380-788, R741S).
T4 construct: also called variant 70
T4 sequence (looked up): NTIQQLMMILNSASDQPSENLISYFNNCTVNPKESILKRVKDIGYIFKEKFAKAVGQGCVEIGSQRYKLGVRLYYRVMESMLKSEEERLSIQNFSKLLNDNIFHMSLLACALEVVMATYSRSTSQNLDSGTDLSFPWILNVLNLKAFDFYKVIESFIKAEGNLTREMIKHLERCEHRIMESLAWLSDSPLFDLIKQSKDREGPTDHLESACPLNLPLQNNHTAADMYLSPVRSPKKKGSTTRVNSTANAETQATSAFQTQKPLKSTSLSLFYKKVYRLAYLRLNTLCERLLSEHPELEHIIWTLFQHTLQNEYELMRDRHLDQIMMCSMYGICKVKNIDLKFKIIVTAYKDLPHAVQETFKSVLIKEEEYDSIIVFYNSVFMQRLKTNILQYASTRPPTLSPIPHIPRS

The target in assay [5] is T5, Rb^P T620M (human, UniProt P06400 380-788, T620M).
T5 construct: also called variant 40
T5 sequence (looked up): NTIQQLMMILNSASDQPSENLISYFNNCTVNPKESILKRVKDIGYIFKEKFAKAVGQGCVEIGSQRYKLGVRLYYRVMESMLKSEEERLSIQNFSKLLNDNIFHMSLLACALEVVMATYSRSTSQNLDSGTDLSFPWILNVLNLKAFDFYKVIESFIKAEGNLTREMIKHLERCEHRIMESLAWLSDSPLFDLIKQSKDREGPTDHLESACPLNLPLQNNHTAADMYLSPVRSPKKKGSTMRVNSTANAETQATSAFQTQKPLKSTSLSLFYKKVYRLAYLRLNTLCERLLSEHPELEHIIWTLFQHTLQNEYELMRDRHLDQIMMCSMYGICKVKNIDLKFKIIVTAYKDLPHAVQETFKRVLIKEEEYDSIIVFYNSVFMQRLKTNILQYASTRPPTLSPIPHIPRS

B1: TMR-E2F1^TD, peptide of the E2F1 transactivation domain (peptide)
peptide: {TMR}-GEGIRDLFDCDFGDLTPLD
notes: also called E2F^TD; source: synthetic peptide, bought: GenScript
On to B1, for which the Kd in assay [1] was determined as 0.012 µM; in assay [2], 9.28 µM; in assay [3] it was 0.026 µM; in assay [4], 0.032 µM; in assay [5], 0.024 µM.

B2: TMR-E7^LxCxE, LxCxE peptide of the E7 oncoprotein from HPV (peptide)
peptide: DLYCYEQLN
modifications: also: TMR label, position not given here
notes: source: synthetic peptide, bought: GenScript
As for B2, the Kd turned out to be 0.003 µM in assay [1]; 0.004 µM in assay [2]; 0.01 µM in assay [3]; 0.016 µM in assay [4]; 0.006 µM in assay [5].
